The record followed here is paper PMC7699647, “Nucleocapsid protein of SARS-CoV-2 phase separates into RNA-rich polymerase-containing condensates”.

This data set deals with nsp12;nsp7;nsp8 (SARS-CoV-2;SARS-CoV-2;SARS-CoV-2, UniProt P0DTD1;P0DTD1;P0DTD1 4393-5324;3860-3942;3943-4140, ||). Put plainly: size exclusion chromatography; 20 mM Na-HEPES pH 7.4, 100 mM NaCl, 1 mM MgCl2, 1 mM TCEP; NMR: 50 mM NaP, 0.01% NaN3, 5% D2O, 5 C; phase separation: 20 mM NaPi pH 7.5. As to conditions: protein: recombinant;recombinant;recombinant; tags: 6xHis-MBP removed by TEV;His tag removed by TEV;His tag removed by TEV; copies: 1;1;2; label: 5' 6-FAM on strand 2; 5' overhang 11 nt on strand 1; other end blunt. On the technique in general: SEC sorts molecules by how far they enter the pores of the column.

B1: RdRp RNA scaffold (minimal RNA hairpin) (dsRNA)
RNA 1: UUUUCAUGCAUCGCGUAGGCUCAUACCGUAUUGAGA
RNA 2: UCUCAAUACGGUAUGAGCCUACGCG
For the molecule B1, the binding result was “binds”.
